This is an account of results in patent publication US20260159603A1 (BEAM THERAPEUTICS, published 2026).

T1: biotinylated human CD5-HIS (human, UniProt P06127 25-372, biotinylated)
T1 construct: Loaded onto streptavidin Octet pins; also called huCD5; SA-human CD5; not shown: HIS tag
T1 sequence (looked up): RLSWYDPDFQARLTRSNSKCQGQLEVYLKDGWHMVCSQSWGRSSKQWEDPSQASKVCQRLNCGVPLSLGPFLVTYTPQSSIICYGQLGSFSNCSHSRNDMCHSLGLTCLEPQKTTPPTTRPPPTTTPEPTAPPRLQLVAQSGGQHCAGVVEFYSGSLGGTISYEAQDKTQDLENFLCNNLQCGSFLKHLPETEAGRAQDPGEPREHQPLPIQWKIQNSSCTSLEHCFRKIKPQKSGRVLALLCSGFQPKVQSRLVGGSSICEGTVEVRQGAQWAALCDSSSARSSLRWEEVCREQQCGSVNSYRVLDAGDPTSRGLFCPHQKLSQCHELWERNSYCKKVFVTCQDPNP

T2: human CD5 on transfected HEK293T cells (human, UniProt P06127 25-495)
T2 construct: whole, on cells; also called huCD5; Human CD5 Cells
T2 sequence (looked up): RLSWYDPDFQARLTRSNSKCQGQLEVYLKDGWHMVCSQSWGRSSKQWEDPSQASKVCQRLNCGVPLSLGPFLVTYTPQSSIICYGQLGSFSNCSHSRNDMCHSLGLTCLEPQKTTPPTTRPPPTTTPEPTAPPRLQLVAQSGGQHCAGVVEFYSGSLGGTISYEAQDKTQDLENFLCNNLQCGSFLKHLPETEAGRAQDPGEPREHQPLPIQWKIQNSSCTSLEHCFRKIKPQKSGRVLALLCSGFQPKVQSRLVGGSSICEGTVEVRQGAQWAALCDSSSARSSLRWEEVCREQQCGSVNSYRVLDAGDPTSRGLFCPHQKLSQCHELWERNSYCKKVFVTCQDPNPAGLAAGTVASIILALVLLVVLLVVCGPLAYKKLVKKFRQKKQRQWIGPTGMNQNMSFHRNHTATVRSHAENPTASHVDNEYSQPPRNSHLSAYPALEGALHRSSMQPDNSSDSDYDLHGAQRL

B1: ABTx327 (VHH)
VHH: QVQLVESGGGLVQPGGSLRLSCVASGGTFSTYGMGWFRQAPGKEREFVAVITGSGVGTQYADSVKDRFTISRENAKNTVYLQMNTLKLEDTAVYYCVSGHRPGWAVIRADAYEYWGQGTQVTVSS
notes: VHH in periplasmic extract of the phage display clone; also called clone 834; not shown: c-myc tag of the phagemid construct (detected with anti-c-myc 9E10)
B2: ABTx329 (VHH)
VHH: QLQLVESGGGLVQPGESLRLSCAASGFSFSRVGMNWYRQAPGKERELVASISSDGSRTNYAHFVKGRFTISRDNVKNMVYLQMNSLKLEDTAVYYCNVPGNSWGQGTQVTVSS
notes: VHH in periplasmic extract of the phage display clone; also called clone 1091; not shown: c-myc tag of the phagemid construct (detected with anti-c-myc 9E10)
B3: ABTx326 (VHH)
VHH: QVQLVESGGGLVQPGGSLRLSCAASGRTFINYAAGWFRQAPGKEREFVARISRSGGRTDYADSVKGRFTISRDNAKSTVYLQMNSLRPEDTAVYYCAEATVWEFTDGADQYDYWGQGTQVTVSS
notes: VHH in periplasmic extract of the phage display clone; also called clone 199; not shown: c-myc tag of the phagemid construct (detected with anti-c-myc 9E10)
B4: ABTx325 (VHH)
VHH: QVQLVESGGGLVQPGGSLRLSCAASGSDASTNNMAWYRQAPGKEREFVALIRTGGSTHVADSMKGRFTISRENAKNTVYLQMNSLKPEDTAVYYCVIWTGSPGALSDYWGQGTQVTVSS
notes: VHH in periplasmic extract of the phage display clone; also called clone 420; not shown: c-myc tag of the phagemid construct (detected with anti-c-myc 9E10)

For one assay, the target named is T1, biotinylated human CD5-HIS. The experiment in a line: BLI (Octet), biotinylated CD5-HIS on streptavidin pins.
B1 displayed a Kd of 0.22 nM, a koff of 3.6e-05 s⁻¹ and a kon of 160000 M⁻¹ s⁻¹.

With B2, the affinity, expressed as Kd, was 0.69 nM; the koff was found to be 9.3e-05 s⁻¹; the kon came out at 130000 M⁻¹ s⁻¹.

In the case of B3, the affinity, expressed as Kd, was 2 nM; the koff is 0.00015 s⁻¹; the kon was 74000 M⁻¹ s⁻¹.

As to B4, the Kd amounted to 1.5 nM, the off-rate constant (koff) was 0.00013 s⁻¹ and the kon turned out to be 90000 M⁻¹ s⁻¹.

The next assay has as its target T3, biotinylated cynomolgus CD5-HIS (cynomolgus).
T3 construct: Loaded onto streptavidin Octet pins; also called CynoCD5; SA-Cyno CD5
The assay is described as above.
For the molecule B1, the affinity, expressed as Kd, was 0.78 nM; the off-rate constant (koff) was determined as 0.00011 s⁻¹; the kon amounted to 140000 M⁻¹ s⁻¹.

Regarding B2, the Kd was 1.6 nM, the koff was 0.00017 s⁻¹ and the on-rate constant (kon) came out at 110000 M⁻¹ s⁻¹.

B3: the Kd was found to be 2.2 nM, the koff was found to be 0.00015 s⁻¹ and the kon stood at 68000 M⁻¹ s⁻¹.

B4 gave a dissociation constant (Kd) of 1.8 nM, a koff of 0.00013 s⁻¹ and a kon of 68000 M⁻¹ s⁻¹.

Another assay concerns the target T4, cynomolgus CD5 on transfected HEK293T cells (cynomolgus (Table 8B); rhesus macaque …).
T4 construct: whole, on cells; also called Cynomolgus CD5 Cells; rhesus macaque (Macaca mulatta) CD5
The experiment in a line: flow cytometry, periplasmic extract on transfected HEK293T cells.
With B1, the “percent of cells showing binding” value was found to be 71.7%.

Regarding B2, the “percent of cells showing binding” value was determined as 66.5%.

As for B3, the “percent of cells showing binding” value turned out to be 58.4%.

Regarding B4, the “percent of cells showing binding” value came to 80%.

A further assay has as its target T2, human CD5 on transfected HEK293T cells. The description is as above.
For B1, the “percent of cells showing binding” value is 68%.

As for B2, the “percent of cells showing binding” value turned out to be 72%.

As for B3, the “percent of cells showing binding” value worked out at 41.6%.

In the case of B4, the “percent of cells showing binding” value came out at 77.4%.

In another assay the target is T1, biotinylated human CD5-HIS. The assay is described as follows: BLI (Octet), biotinylated CD5-HIS on streptavidin pins, periplasmic extract, off-rate. (In general: BLI is a label-free optical method that tracks binding on a fibre tip over time.)
The molecule B1 returned a koff of 0.0195 s⁻¹.

On to B2, for which the koff is 0.000372 s⁻¹.

B3: the koff stood at 0.000825 s⁻¹.

B4 gave a koff of 0.0027 s⁻¹.

For the next assay, the target named is T3, biotinylated cynomolgus CD5-HIS. The assay is described as above.
B1 registered a koff of 0.0329 s⁻¹.

B2 registered a koff of 0.000488 s⁻¹.

B3 returned a koff of 0.00415 s⁻¹.

B4 yielded a koff of 0.0143 s⁻¹.

Another assay has as its target T1, biotinylated human CD5-HIS. The experiment in a line: BLI; KD on human CD5 divided by KD on cynomolgus CD5.
As for B1, the “Hu/Cyno KD” value came to 0.3.

With B2, the “Hu/Cyno KD” value stood at 0.4.

On to B3, for which the “Hu/Cyno KD” value worked out at 0.9.

For B4, the “Hu/Cyno KD” value stood at 0.8.

Broadly, the Kd is the free concentration of one partner at which half of the binding sites on the other are occupied at equilibrium, for simple one-to-one binding. In general, koff refers to the rate constant with which the complex falls apart. A higher koff goes with fast dissociation. For orientation: kon means the rate constant with which the complex forms. Read a high kon as faster complex formation.
